{"source": "patent US20190075806", "key": {"[1]": {"biological_target": "neutral lactase (GODO-YNL2; unfragmented high molecular fraction F-1, about 120 kDa), P00723", "sequence (P00723 whole entry, the tested form may be a part)": "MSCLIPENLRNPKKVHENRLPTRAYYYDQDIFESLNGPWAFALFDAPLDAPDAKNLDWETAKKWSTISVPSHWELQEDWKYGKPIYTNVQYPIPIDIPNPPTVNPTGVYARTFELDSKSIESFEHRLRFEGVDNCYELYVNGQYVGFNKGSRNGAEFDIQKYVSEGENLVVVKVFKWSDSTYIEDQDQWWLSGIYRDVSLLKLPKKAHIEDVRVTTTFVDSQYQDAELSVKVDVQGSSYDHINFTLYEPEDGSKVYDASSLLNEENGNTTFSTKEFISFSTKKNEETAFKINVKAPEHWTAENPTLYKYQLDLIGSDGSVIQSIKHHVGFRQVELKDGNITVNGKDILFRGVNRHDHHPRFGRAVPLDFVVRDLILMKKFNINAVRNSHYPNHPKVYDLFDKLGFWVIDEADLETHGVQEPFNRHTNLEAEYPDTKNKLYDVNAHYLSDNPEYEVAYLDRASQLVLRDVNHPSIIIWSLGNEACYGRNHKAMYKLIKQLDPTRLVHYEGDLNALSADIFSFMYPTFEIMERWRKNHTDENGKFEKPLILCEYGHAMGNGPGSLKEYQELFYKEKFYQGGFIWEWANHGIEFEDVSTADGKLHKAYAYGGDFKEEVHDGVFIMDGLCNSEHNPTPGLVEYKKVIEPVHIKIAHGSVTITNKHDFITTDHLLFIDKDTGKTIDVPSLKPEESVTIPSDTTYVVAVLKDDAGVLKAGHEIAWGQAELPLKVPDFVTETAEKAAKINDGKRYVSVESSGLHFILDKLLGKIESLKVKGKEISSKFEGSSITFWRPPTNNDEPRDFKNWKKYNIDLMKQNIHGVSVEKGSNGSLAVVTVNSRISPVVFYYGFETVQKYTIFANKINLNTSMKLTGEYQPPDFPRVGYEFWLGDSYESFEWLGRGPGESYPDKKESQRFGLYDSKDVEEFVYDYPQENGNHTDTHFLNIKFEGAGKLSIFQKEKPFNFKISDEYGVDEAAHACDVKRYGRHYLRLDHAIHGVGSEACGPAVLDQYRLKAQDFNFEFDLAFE"}}}
{"protein": "proteinase B derived from Kluyveromyces lactis (mature enzyme) (protein) SFNTQNSAPWGLARISHREKLNLGSFNKYLYDDDAGKGVTAYVVDTGVNVNHKDFDGRAVWGKTIPKDDPDVDGNGHGTHCAGTIGSVHYGVAKNADIVAVKVLRSNGSGTMSDVVKGVEYVAEAHKKAVEEQKKGFKGSTANMSLGGGKSPALDLAVNAAVKAGVHFAVAAGNENQDACNTSPAAAENAITVGASTLSDERAYFSNWGKCVDIFGPGLNILSTYIGSDTATATLSGTSMATPHVVGLLTYFLSLQPDADSEYFHAAGGITPSQLKKKLIDFSTKNVLSDLPEDTVNY", "values": [{"measurement": "SUBSTRATE SPECIFICITY (relative protease activity, K. lactis PrB)", "setting": "FITC-casein", "value": 78}, {"measurement": "SUBSTRATE SPECIFICITY (relative protease activity, K. lactis PrB)", "setting": "BSA, P02769", "value": 0}, {"measurement": "SUBSTRATE SPECIFICITY (relative protease activity, K. lactis PrB)", "setting": "[1]", "value": 1160}, {"measurement": "SUBSTRATE SPECIFICITY (relative protease activity, K. lactis PrB)", "setting": "Azocoll", "value": 1.9}, {"measurement": "SUBSTRATE SPECIFICITY (relative protease activity, K. lactis PrB)", "setting": "Casein", "value": 0}, {"measurement": "SUBSTRATE SPECIFICITY (relative protease activity, K. lactis PrB)", "setting": "Azocasein", "value": 1}]}
